# Measurements from the supplement of paper PMC12764529.
# ± gives the half width of the 95% confidence interval.
# Experiment: folding stability dG unfold from chymotrypsin proteolysis; higher = more stable
# Procedure, shortened: (§1)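 K50 was inferred by Bayesian fitting of sequencing counts obtained after protease digestion of designed mini-proteins. Unfolding free energy was derived by comparison with a sequence-predicted unfolded-state K50 and a shared folded-state K50, for each protease or both combined. The mini-proteins were under 80 residues, had no cysteine, were carried in a PA-tagged cDNA display construct, and were kept only if AlphaFold2 dimer inter-PAE exceeded 15.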
row,Sequence,folding stability dG unfold
1,SAGGKRRTINFDIEGMTPEKFVHMARMAIRNLPDPEQVTITINMRNPMWRRWFIELAKELPGIEIEFMSAGG [r13_718_TrROS],3.43 ± 0.044 kcal/mol
2,SAGGSAGGSAGNKDYPVIEVTYPFPPGAPASDIKDFAEPFGFESIEFDDNGTVKVYFYLPSAGGSAGGSAGG [r11_961_TrROS],0.818 ± 0.11 kcal/mol
3,SAGGSMLFLRVRIEVRPPTAEDLAEGKEVKEVEILVEFDSVEELKEALEKLPPNAKVEVELVELEESAGGSA [r2_25_TrROS_Hall],2.9 ± 0.17 kcal/mol
4,SAGGSAGGSAGGKEITIMMPSPEAIKKLLPPGWKITNIEPIGRDPEDGYPYYMITFKPDSAGGSAGGSAGGS [r10_256_TrROS],1.11 ± 0.042 kcal/mol
5,SAGPWWMITIRLPGNKTITIMFPGVKVEVDPKNNTIRIRNPGLGHSIEFKFDPPGKIKDVDIEPIPPNASAG [r5_342_TrROS],4.49 ± 0.13 kcal/mol
6,SAGGSAGGSAAAPPPPTITITVEVRTLPDGTVEITATATLPDGTTLTVTLRINADGSLTATSAGGSAGGSAG [r3_259_TrROS_Hall],3.4 ± 0.17 kcal/mol
7,SSISPSSTLTFSKPFPDDDINAVKEFAEKLAKEIGPDVSVVKIEKDPNNPNKVTITISVPGTSITVNFSNSA [r9_1079_JUSTAS],0.664 ± 0.26 kcal/mol
8,SAELPPGMRLVIDDIEPMRNNGKPMLMIKLSIYDPAKPGKEITHWTIMVTNDNIMAIQPTTYRIPPDDISAG [r14_651_TrROS],2.63 ± 0.12 kcal/mol
9,SAGGSAGGSAPKVEPHPVTFTFENAVVTVTRYRVPDEDGNPLYFTSVSVFFLDKDGKPGFVFPSAGGSAGGS [r20_13_TrMRF],4.82 ± 0.069 kcal/mol
10,SAGGSAPSVFPFKAKFKDYDLEIKSITVYENGEVEINAIAYNPDGKKKVELNITLPYSEILDLLKSSAGGSA [r15_56_TrMRF],2.68 ± 0.037 kcal/mol
11,STTEVEVTPLPGNSTLVTTTTTTPEFDPANGTIRYTSETTTTTITYTPGTTEPTTTTTTTTTTTTIPATTSA [r9_140_JUSTAS],0.813 ± 0.12 kcal/mol
12,SARIRFPDGKPIDMEIVNIHRTPNGLTITIVLRHKDEYRVITFEIPPDGEIRIKSVERVPLPPGDPALVSAG [r14_13_TrROS],3.37 ± 0.059 kcal/mol
13,SAGGSAGGSAGGSAKIDLPFPAEITEIRPRPDGSVEIRLSFPTYTVTAIIPPNGIKIYGSAGGSAGGSAGGS [r4_280_TrMRF],-0.0211 ± 0.11 kcal/mol
14,SDPGHKFKMEIVREIYLPGQIRIFVHKMEHPNGNPWVNVMVRNPDGQMEPIAMVPSDDPDAKDEALKLIKSA [r9_1069_TrROS],0.506 ± 0.14 kcal/mol
15,SAGGSAGGSAGGSKTKAELFKVGDKLILATYHPDTGKVEIFYPDNSVETLPAEEAEKLFSAGGSAGGSAGGS [r10_1140_TrMRF],0.957 ± 0.13 kcal/mol
16,SAGGDEIAKEIANHAREQGYKVEVKVERDEDGMVKIDVEMSMPNGRRVTFSITINPDGIEIQSIEVTPSAGG [r13_203_TrROS],4.41 ± 0.067 kcal/mol

# Experiment: folding stability dG unfold (combined trypsin and chymotrypsin); higher = more stable
# Procedure, shortened: as §1
row,Sequence,folding stability dG unfold
1,SAGGSAGGMFIALVTITLPNGEKITDLAFFESPEKIYVLNLKDGKWSEPKVEDIKVVPLEELLFSAGGSAGG [r6_558_TrMRF],2.41 ± 0.18 kcal/mol
2,SAGGMVYRVKVKITFPDGKTYYIPFPNFKSFEEILNVLKKLGFENLENIPIEVIEIEPIPEVPEELLKSAGG [r13_493_TrMRF],2.74 ± 0.16 kcal/mol
3,SKVRELLREIARPHGMPITDVKVEPPPDGWHKVTFQIQFPMKDPNGQPMRRMTFPATITVRNGKITEITISA [r9_519_TrROS],1.72 ± 0.34 kcal/mol
4,MRLRLTFRLPDGTEFRVERVEVLRVEPRGDRVVIPVRAYFTPEERRRLEELIPGLRDRPPLVVEVEIVLTGS [r1_35_TrMRF],3.96 ± 0.072 kcal/mol
5,SAGGSFEFKAEVFYDKEKDIYYVKIPYILKNTGKIIPIVKKVKAGDPIPVEKLAEKIAKELEELGISAGGSA [r2_221_TrMRF],1.36 ± 0.1 kcal/mol
6,SAGGSAGGSAGTITILFKDPEDAIDRIKEFAQKEGYKVKIDEIEYTPNGYVWIDIDIEPPSAGGSAGGSAGG [r11_304_TrROS],1.35 ± 0.099 kcal/mol
7,SAGGSAKKTLKIKVKTPKGGLKTIEIPDSVKKIDIIPGKDYVKIIIYNPKTKKKIELPPFKVIEISSAGGSA [r15_133_TrMRF],1.79 ± 0.086 kcal/mol
8,SNVHIHVEPDPDGRVKITLMMPPDNPDEFAEEIAENLGYPVKITDIEPFPFKKNGKPREYYMIEIEIRLPSA [r9_431_TrROS],2.17 ± 0.25 kcal/mol
9,SAKMTAEEIAAALAEELGLEVVEVVEVDEETGKITIRVDGKLIEITVVEEDGELKIEVRVVDEETGEELSAG [r14_270_TrROS_Hall],1.36 ± 0.18 kcal/mol
10,SAGGSAPREIPIMIRVPGYQIEIHKITVPPNGMVQIGLEWRNPGGDKPVTINIWLPLNEIKDFIKASAGGSA [r15_56_TrROS],2.54 ± 0.14 kcal/mol
11,SAGGSAGGSAGGSKNKKIKLGPEVKIKVKIEAKLEGGYSSENGLPEFKLDVKLEIGEVESAGGSAGGSAGGS [r10_877_TrMRF],0.94 ± 0.26 kcal/mol
12,SAGGSAGKPRPIDIWIPLPPGAEEVKIEQLDIFIPDGWRIRIEEIEIDPEDPGYIRVTVKIQPLDDSAGGSA [r15_852_TrROS],2.56 ± 0.16 kcal/mol
13,SAGGSATKVIYGMSVEEIRAAIKAGAKKIIIVADTEEQKKAAAEELEKEYNIKIEVKKIKPKKKKKSAGGSA [r15_243_TrROS_Hall],1.89 ± 0.17 kcal/mol
14,SAGGSAGGSIEELAKKTNIIEVKVTEFPNPKFKKAFIVYKNPKENKYKKGIYIFYDKKDGKLESAGGSAGGS [r12_133_TrMRF],0.313 ± 0.23 kcal/mol
15,SAGGSAMVVIRTTKPGGKVEVLAVNPEDGSKTVKTFSSSTSPKEVFEEVNKEFGGEVKVEKVELKASAGGSA [r15_544_TrMRF],-0.512 ± 0.18 kcal/mol
16,SAGGKRRTINFDIEGMTPEKFVHMARMAIRNLPDPEQVTITINMRNPMWRRWFIELAKELPGIEIEFMSAGG [r13_718_TrROS],3.19 ± 0.15 kcal/mol

row,Sequence,folding stability dG unfold
1,SAGGSAGGSAGNKDYPVIEVTYPFPPGAPASDIKDFAEPFGFESIEFDDNGTVKVYFYLPSAGGSAGGSAGG [r11_961_TrROS],0.825 ± 0.087 kcal/mol
2,SAGGSMLFLRVRIEVRPPTAEDLAEGKEVKEVEILVEFDSVEELKEALEKLPPNAKVEVELVELEESAGGSA [r2_25_TrROS_Hall],2.83 ± 0.53 kcal/mol
3,SAGGSAGGSAGGKEITIMMPSPEAIKKLLPPGWKITNIEPIGRDPEDGYPYYMITFKPDSAGGSAGGSAGGS [r10_256_TrROS],1.3 ± 0.057 kcal/mol
4,SAGPWWMITIRLPGNKTITIMFPGVKVEVDPKNNTIRIRNPGLGHSIEFKFDPPGKIKDVDIEPIPPNASAG [r5_342_TrROS],3.95 ± 0.18 kcal/mol
5,SAGGSAGGSAAAPPPPTITITVEVRTLPDGTVEITATATLPDGTTLTVTLRINADGSLTATSAGGSAGGSAG [r3_259_TrROS_Hall],3.17 ± 0.23 kcal/mol
6,SSISPSSTLTFSKPFPDDDINAVKEFAEKLAKEIGPDVSVVKIEKDPNNPNKVTITISVPGTSITVNFSNSA [r9_1079_JUSTAS],1.01 ± 0.14 kcal/mol
7,SAELPPGMRLVIDDIEPMRNNGKPMLMIKLSIYDPAKPGKEITHWTIMVTNDNIMAIQPTTYRIPPDDISAG [r14_651_TrROS],2.57 ± 0.22 kcal/mol
8,SAGGSAGGSAPKVEPHPVTFTFENAVVTVTRYRVPDEDGNPLYFTSVSVFFLDKDGKPGFVFPSAGGSAGGS [r20_13_TrMRF],4.35 ± 0.18 kcal/mol
9,SAGGSAPSVFPFKAKFKDYDLEIKSITVYENGEVEINAIAYNPDGKKKVELNITLPYSEILDLLKSSAGGSA [r15_56_TrMRF],2.55 ± 0.094 kcal/mol
10,STTEVEVTPLPGNSTLVTTTTTTPEFDPANGTIRYTSETTTTTITYTPGTTEPTTTTTTTTTTTTIPATTSA [r9_140_JUSTAS],0.814 ± 0.14 kcal/mol
11,SARIRFPDGKPIDMEIVNIHRTPNGLTITIVLRHKDEYRVITFEIPPDGEIRIKSVERVPLPPGDPALVSAG [r14_13_TrROS],2.96 ± 0.12 kcal/mol
12,SAGGSAGGSAGGSAKIDLPFPAEITEIRPRPDGSVEIRLSFPTYTVTAIIPPNGIKIYGSAGGSAGGSAGGS [r4_280_TrMRF],0.487 ± 0.065 kcal/mol
13,SDPGHKFKMEIVREIYLPGQIRIFVHKMEHPNGNPWVNVMVRNPDGQMEPIAMVPSDDPDAKDEALKLIKSA [r9_1069_TrROS],0.391 ± 0.1 kcal/mol
14,SAGGSAGGSAGGSKTKAELFKVGDKLILATYHPDTGKVEIFYPDNSVETLPAEEAEKLFSAGGSAGGSAGGS [r10_1140_TrMRF],1.03 ± 0.14 kcal/mol
15,SAGGDEIAKEIANHAREQGYKVEVKVERDEDGMVKIDVEMSMPNGRRVTFSITINPDGIEIQSIEVTPSAGG [r13_203_TrROS],3.97 ± 0.15 kcal/mol
